Assay results taken from article PMC2810501.

Target: specific saturable binding sites for S100A8/A9 on cell membranes of blood MDSC (carboxylated N-glycan receptors)
Assay: radioligand binding

Substance: S100A8/A9 heterodimer, purified, Na125I-labeled (from UniProt P27005 1-89; P31725 1-113) (complex)
- Kd: 0.0374 µM
